Reference: patent publication US20230051701A1 (Bristol-Myers Squibb, published 2023)
“And” between values parts separate entries of the source, which are not always exact repeats. Equal values may be shown once.

Tests used:
[1] = biological target: T1, human CD73 on cells (Calu6, NCI-H292, SK-MEL-24, human tumor cell lines, human B and T cells) (human, UniProt P21589 27-549); test: flow cytometry, human tumor cell lines
T1 construct: Endogenous protein; also called endogenous CD73; cellular CD73
T1 sequence: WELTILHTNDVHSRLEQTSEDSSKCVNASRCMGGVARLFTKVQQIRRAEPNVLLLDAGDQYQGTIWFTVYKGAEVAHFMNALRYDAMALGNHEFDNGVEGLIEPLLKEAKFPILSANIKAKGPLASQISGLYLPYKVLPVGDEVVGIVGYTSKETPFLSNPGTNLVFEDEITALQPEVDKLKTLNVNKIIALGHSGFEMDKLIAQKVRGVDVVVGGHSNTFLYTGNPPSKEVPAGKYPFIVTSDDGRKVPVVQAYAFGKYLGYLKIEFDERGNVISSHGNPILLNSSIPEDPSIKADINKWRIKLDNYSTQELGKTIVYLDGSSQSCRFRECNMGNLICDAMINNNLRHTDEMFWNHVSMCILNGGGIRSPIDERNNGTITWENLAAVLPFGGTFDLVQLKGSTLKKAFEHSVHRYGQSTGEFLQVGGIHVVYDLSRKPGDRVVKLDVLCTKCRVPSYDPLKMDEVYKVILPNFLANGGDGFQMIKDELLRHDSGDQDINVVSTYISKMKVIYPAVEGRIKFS
Experimental: Titration binding curves were produced with CD73 antibodies on Calu6 (CD73 endogenous expressors; human pulmonary adenocarcinoma cell line), DMS114 (CD73 negative; human small cell lung cancer cell line), CHO-cynoCD73 (cynoCD73-transfected) and CHO-K1 (cynoCD73 negative), cells using Alexa Fluor® 647 Goat Anti-Human IgG (H+L) as a secondary antibody, Invitrogen Cat#A-21445, using the following method: 100000 cells were plated in 100 uL PBS+2% FBS per well and blocked for 20 min. Using a U-bottom 96-deep well plate, volumes of antibody and PBS+2% FBS were combined as dictated by Table 12 below.
An 8-point serial dilution was performed by diluting a sixth of the volume (90 uL) into 450 μL PBS+2% FBS. The cell plate was spun down for 5 minutes at 1500 rpm. 100 uL of diluted antibody was added per well of the plate. 100 uL PBS+2% FBS were added to all other wells. […] The plates were spun down at 1500 rpm for 5 min and washed in 200 uL PBS +2% FBS per well. The plates were washed again, resuspended in 200 uL 2% FBS in PBS per well and the samples were run.

mouse CD73 = biological target: T2, mouse CD73 (mouse, UniProt Q61503 29-551, limits assumed); test: SPR study of Example 3A; format not described
T2 sequence (looked up): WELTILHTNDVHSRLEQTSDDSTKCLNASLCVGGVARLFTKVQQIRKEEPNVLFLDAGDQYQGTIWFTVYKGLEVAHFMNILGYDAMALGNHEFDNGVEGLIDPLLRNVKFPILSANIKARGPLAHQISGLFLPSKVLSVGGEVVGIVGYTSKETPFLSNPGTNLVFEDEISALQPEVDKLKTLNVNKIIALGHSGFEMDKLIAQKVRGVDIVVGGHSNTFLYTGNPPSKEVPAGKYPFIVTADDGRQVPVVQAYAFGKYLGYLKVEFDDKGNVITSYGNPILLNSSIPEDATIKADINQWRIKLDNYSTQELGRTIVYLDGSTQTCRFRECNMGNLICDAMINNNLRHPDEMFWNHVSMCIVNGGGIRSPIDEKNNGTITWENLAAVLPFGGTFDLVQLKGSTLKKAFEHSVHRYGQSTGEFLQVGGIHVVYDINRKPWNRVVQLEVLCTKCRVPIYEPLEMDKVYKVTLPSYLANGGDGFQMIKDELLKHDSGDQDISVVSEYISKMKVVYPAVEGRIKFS

rat CD73 = biological target: T3, rat CD73 (rat, UniProt P21588 29-551, limits assumed); test: SPR study of Example 3A; format not described
T3 sequence (looked up): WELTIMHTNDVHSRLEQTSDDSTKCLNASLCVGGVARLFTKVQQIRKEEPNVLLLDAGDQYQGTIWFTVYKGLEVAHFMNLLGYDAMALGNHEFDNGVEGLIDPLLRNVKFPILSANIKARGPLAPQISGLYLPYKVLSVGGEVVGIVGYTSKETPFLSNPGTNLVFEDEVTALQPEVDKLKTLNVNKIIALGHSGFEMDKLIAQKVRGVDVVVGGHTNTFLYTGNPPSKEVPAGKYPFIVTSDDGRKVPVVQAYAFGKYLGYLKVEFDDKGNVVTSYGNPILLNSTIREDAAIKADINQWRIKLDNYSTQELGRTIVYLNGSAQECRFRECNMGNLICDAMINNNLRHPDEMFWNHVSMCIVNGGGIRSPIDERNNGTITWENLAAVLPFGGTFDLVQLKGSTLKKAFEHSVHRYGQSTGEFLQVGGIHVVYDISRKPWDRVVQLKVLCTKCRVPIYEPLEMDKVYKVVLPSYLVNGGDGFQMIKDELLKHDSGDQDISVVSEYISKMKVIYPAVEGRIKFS

B1: CD73.4-IgG2-C219S-IgG1.1f (antibody)
heavy: QVQLVESGGGVVQPGRSLRLSCAASGFTFSNYGMHWVRQAPGKGLEWVAVILYDGSNKYYPDSVKGRFTISRDNSKNTLYLQMNSLRAEDTAVYYCARGGSSWYPDSFDIWGQGTMVTVSSASTKGPSVFPLAPCSRSTSESTAALGCLVKDYFPEPVTVSWNSGALTSGVHTFPAVLQSSGLYSLSSVVTVPSSNFGTQTYTCNVDHKPSNTKVDKTVERKSCVECPPCPAPPVAGPSVFLFPPKPKDTLMISRTPEVTCVVVDVSHEDPEVKFNWYVDGVEVHNAKTKPREEQYNSTYRVVSVLTVLHQDWLNGKEYKCKVSNKALPSSIEKTISKAKGQPREPQVYTLPPSREEMTKNQVSLTCLVKGFYPSDIAVEWESNGQPENNYKTTPPVLDSDGSFFLYSKLTVDKSRWQQGNVFSCSVMHEALHNHYTQKSLSLSPG
light: not shown
modifications: 94% of the N-terminal glutamine was pyro-Q; 97% of the heavy chains lacked the C-terminal lysine
notes: also called CD73.4-IgG2CS-IgG1.1f
[1]
  EC50: 0.5 nM and 0.3 nM to 0.67 nM (2×)
Mouse CD73
  binding result: no binding
Rat CD73
  binding result: no binding
